This is an account of results in the supplement of paper PMC10567573.

A short description of this data set: protein stability index of a GFP-peptide fusion (GPS, HEK-293T) (PSI 1-6); higher = more stable. The note with it: c terminus: a fixed tail appended.

± gives the standard deviation.
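Note: 24-mer peptide tiles fused after GFP, lentivirally expressed, FACS-sorted into six equal bins by GFP/DsRed ratio, decoded by Illumina sequencing, PSI is the read-weighted mean bin number.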

Regarding NWIELLSGETWNPLKLHYQLRNVR [GOLPH3], the protein stability index came out at 2.43 ± 0.73 (treatment: DMSO) and 2.36 ± 0.61 (treatment: MLN4924 1 uM, 8 h).
The corresponding values for NWTVAFAPDGSYFAWSQGHRTVKL [WSB1] are 2.42 ± 0.53 and 2.47 ± 0.44.
NYECNLYTFLYLVCISTKTQCSEE [FEM1B]: the protein stability index stood at 3.11 ± 0.38 (treatment: DMSO) and 2.81 ± 0.4 (treatment: MLN4924 1 uM, 8 h).
For PADIQAQFAISRELIRNIYNSFHK [SNX8], in that order: 2.04 ± 0.29 and 2.24 ± 0.3.
For PADPTGNLGGGDPKGWRQLAQEAE [OAS1], in that order: 5.17 ± 0.19 and 4.97 ± 0.18.
For the sequence PAGGLAPGGGRGALLDQIRQGIQL [WAS], the protein stability index reads like this: (treatment: DMSO) 4.7 ± 0.19; (treatment: MLN4924 1 uM, 8 h) 4.54 ± 0.76.
For PAPEAESKQTEKDPGVQELEALID [EFHC1], in that order: 5.51 ± 0.2 and 5.57 ± 0.17.
For PAYKVSGDKNEEQVLNAIEAYTEH [ZER1], in that order: 5.06 ± 0.17 and 5.02 ± 0.17.
The corresponding values for PCAAAREGRLERRECGLAAPRFSF [IRX6] are 3.01 ± 0.21 and 2.89 ± 0.4.
Take PDFPSINMDPAGLDDEDDTSIGMP [RETREG3]: the protein stability index was 5.49 ± 0.18 (treatment: DMSO) and 5.53 ± 0.11 (treatment: MLN4924 1 uM, 8 h).
For the sequence PFSECGEAVSDSTPFLTNHGAHKA [ZNF263], the protein stability index reads like this: (treatment: DMSO) 4.76 ± 0.24; (treatment: MLN4924 1 uM, 8 h) 4.93 ± 0.32.
As for PFVCPECGQPCSQKSGLIRHQKIH [ZNF649], the protein stability index was 4.65 ± 0.3 (treatment: DMSO) and 4.78 ± 0.3 (treatment: MLN4924 1 uM, 8 h).
The corresponding values for PGEQGGGKLVLSSLPKRLCLVCGD [ESRRA] are 2.79 ± 0.19 and 3.25 ± 0.29.
For PGPASGPGPDTGPDSELSPCIPPG [SPAG8], in that order: 5.4 ± 0.24 and 5.36 ± 0.24.
The corresponding values for PGVFVLLACGTMSSTCGQLASYPL [SLC25A25] are 3.18 ± 0.3 and 2.66 ± 0.61.
As for PHSAKTEEHTTILRPSYTGLSSSS [CDC14A], the protein stability index is, setting by setting: (treatment: DMSO) 4.4 ± 0.33; (treatment: MLN4924 1 uM, 8 h) 4.58 ± 0.2.
For PIFVNSPTLDAPGGRALVVRKVPP [SMAD6], in that order: 3.23 ± 0.059 and 3.34 ± 0.29.
The corresponding values for PILRLLPQGISPVSQHWATWALYN [ZER1] are 2.78 ± 0.37 and 2.95 ± 0.34.
The corresponding values for PISEKAKDLILRFCIDSENRIGNS [STK38L] are 2.04 ± 0.47 and 2.05 ± 0.41.
For the sequence PKPCAGNQGTQITVEDLFYNIATR [MLH1], the protein stability index is, setting by setting: (treatment: DMSO) 2.85 ± 0.32; (treatment: MLN4924 1 uM, 8 h) 2.97 ± 0.41.
The corresponding values for PLFEDVQMLRKTVKDEAHQAQKDP [PPP2R5C] are 5.37 ± 0.22 and 5.3 ± 0.17.
For PLGSPSPRPRRAKRFASLSRFVET [ADAMTS4], in that order: 3.5 ± 0.28 and 3.41 ± 0.21.
For PLHNSGLLSLDPVQDKTPLYSQLL [MED27], in that order: 2.76 ± 0.27 and 2.92 ± 0.34.
In the case of PMYFFLGNLSVLDVGCISVTVPSM [OR3A1], the protein stability index reads like this: (treatment: DMSO) 2.65 ± 0.52; (treatment: MLN4924 1 uM, 8 h) 3.06 ± 0.65.
The corresponding values for PPARGTLKTSNLPEELRKVFITYS [TRAF3IP2] are 2.53 ± 0.37 and 2.53 ± 0.12.
The corresponding values for PPDKGEEQVNFCESSNDFGPYEGG [ZBTB22] are 5.53 ± 0.098 and 5.41 ± 0.26.
For PPGSHLLYAKMIQKLADLRSLNEE [VDR], in that order: 2.61 ± 0.11 and 2.67 ± 0.25.
In the case of PPPKTNLTPGQSDSAKREVKQKIS [FAN1], the protein stability index came to 5.44 ± 0.24 (treatment: DMSO) and 5.35 ± 0.094 (treatment: MLN4924 1 uM, 8 h).
The corresponding values for PPPSRPSVAVPPPPPNRMYPPPPP [WASL] are 4.48 ± 0.2 and 4.49 ± 0.2.
Regarding PPSARHRAHPPQRPASSGGAHTLV [KCNA3], the protein stability index by setting is: (treatment: DMSO) 4.06 ± 0.42; (treatment: MLN4924 1 uM, 8 h) 4.1 ± 0.45.
For PPTTPQNEEIRAVGRLKRERSMSE [MFF], in that order: 4.82 ± 0.28 and 5.05 ± 0.14.
For PRAVFVLLEERRPADSAQLLSLNS [TFE3], in that order: 2.29 ± 0.12 and 2.4 ± 0.2.
For PSETGNTFVSGGCDKKAMVWDMRS [GNB5], in that order: 3.93 ± 0.16 and 3.75 ± 0.26.
PSFCPVQPCFFQDISMEIPQEFQK [SCAMP3] displayed a protein stability index (treatment: DMSO) of 3.64 ± 0.35 and a protein stability index (treatment: MLN4924 1 uM, 8 h) of 3.69 ± 0.21.
For PTDYQVNIQIIEYEKKQTLGQNDT [BTBD1], in that order: 3.76 ± 0.27 and 3.91 ± 0.13.
The corresponding values for PTGRLPALVRWWNGIGAVLDFTHP [MYORG] are 2.15 ± 0.28 and 2.14 ± 0.033.
